The target in assay [1] is OG488-EGR-labeled fXa-R165A. Description: fluorescence polarisation. (Fluorescence polarisation rises when a labelled molecule tumbles more slowly, as on binding a larger partner.)
In another assay the target is OG488-EGR-labeled E2-fXa. Description: fluorescence polarisation.
In assay [2] the target is OG488-EGR-labeled fXa-R165A. Nature of the assay: fluorescence polarisation. This is another data set of the same source.
In assay [3] the target is OG488-EGR-labeled fXa-des-Gla. Nature of the assay: fluorescence polarisation.
Assay [4] concerns the target OG488-EGR-labeled wild-type factor Xa. Description: fluorescence polarisation.
A further assay deals with T1, factor Va (Homo sapiens, UniProt P12259).
T1 chain 1: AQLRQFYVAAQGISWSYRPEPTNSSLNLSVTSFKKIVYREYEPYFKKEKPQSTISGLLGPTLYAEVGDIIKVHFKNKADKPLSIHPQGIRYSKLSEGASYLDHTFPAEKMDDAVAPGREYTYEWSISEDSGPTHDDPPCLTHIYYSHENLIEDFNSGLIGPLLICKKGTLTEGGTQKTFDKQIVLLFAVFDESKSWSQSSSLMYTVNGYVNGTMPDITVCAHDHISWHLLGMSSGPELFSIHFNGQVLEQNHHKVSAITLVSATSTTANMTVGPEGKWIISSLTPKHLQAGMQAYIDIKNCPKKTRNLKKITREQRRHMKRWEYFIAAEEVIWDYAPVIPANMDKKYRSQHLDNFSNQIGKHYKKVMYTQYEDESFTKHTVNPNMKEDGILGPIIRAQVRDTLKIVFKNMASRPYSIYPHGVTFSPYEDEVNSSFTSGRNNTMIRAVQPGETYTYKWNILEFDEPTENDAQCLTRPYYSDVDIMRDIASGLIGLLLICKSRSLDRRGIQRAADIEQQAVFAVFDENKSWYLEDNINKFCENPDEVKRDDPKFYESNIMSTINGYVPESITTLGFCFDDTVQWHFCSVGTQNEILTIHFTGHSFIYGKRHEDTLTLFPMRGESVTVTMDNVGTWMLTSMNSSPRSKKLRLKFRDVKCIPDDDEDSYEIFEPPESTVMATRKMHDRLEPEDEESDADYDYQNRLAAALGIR
T1 chain 2: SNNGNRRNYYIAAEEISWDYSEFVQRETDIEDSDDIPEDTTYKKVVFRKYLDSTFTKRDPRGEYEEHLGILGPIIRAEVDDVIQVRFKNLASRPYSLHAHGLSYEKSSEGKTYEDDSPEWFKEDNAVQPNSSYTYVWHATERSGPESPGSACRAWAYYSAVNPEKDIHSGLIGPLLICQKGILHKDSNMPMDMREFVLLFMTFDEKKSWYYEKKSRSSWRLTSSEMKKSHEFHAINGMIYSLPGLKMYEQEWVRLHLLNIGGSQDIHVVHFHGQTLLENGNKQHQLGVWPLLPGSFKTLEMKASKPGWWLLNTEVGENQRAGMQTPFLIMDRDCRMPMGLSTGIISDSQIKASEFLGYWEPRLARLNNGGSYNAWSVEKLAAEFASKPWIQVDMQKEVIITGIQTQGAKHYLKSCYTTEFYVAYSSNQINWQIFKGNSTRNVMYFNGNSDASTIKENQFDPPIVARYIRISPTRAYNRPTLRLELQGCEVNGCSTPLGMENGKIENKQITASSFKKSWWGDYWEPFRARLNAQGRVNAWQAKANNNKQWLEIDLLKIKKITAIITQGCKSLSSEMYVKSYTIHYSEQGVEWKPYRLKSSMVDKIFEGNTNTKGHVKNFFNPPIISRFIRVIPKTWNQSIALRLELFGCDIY
Description: prothrombinase assay.

Where two headings read alike, the source gives them in different places.

As to “human plasma factor Va (from UniProt P12259 29-737; P12259 1574-2224) (natural protein)”, the Kd (usually the equilibrium constant for the complex coming apart) in assay [1] was determined as 10.5 nM; with OG488-EGR-labeled E2-fXa it was 62 nM; in assay [2] it was 10.3 nM; in assay [3], 58 nM; in assay [4] it was 1.5 nM.

B1: factor Xa (protein)
chain: IVGGQECKDGECPWQALLINEENEGFCGGTILSEFYILTAAHCLYQAKRFKVRVGDRNTEQEEGGEAVHEVEVVIKHNRFTKETYDFDIAVLRLKTPITFRMNVAPACLPERDWAESTLMTQKTGIVSGFGRTHEKGRQSTRLKMLEVPYVDRNSCKLSSSFIITQNMFCAGYDTKQEDACQGDSGGPHVTRFKDTYFVTGIVSWGEGCARKGKYGIYTKVTAFLKWIDRSMKTRGLPKAKSHAPEVITSSPLK
modifications: PCPS vesicles
In the assay with factor Va, B1 gave a dissociation constant Kd of 0.5 nM. This counts as sub-nanomolar.

The values are drawn from paper PMC2693874 (2009).
